Measurements from US20150119341A1.
[ ]: non-standard residue; d: D form. Nle = CCCC[C@H](N)C(=O)O

What was measured:
[1] = target: recombinant human melanocortin-4 receptor (hMCR-4) in membrane homogenates of HEK-293 cells (human) (UniProt P32245); experiment: competitive inhibition of [I125]-NDP-alpha-MSH, hMCR-4 HEK-293 membranes
[2] = target: recombinant human melanocortin-1 receptor (hMCR-1a) in membrane homogenates of HEK-293 cells (human) (UniProt Q01726); experiment: competitive inhibition of [I125]-NDP-alpha-MSH, hMCR-1 HEK-293 membranes
recombinant human melanocortin-1 receptor (hMCR-1a) in membrane homogenates of HEK-293 cells (human), sequence (Q01726 whole entry): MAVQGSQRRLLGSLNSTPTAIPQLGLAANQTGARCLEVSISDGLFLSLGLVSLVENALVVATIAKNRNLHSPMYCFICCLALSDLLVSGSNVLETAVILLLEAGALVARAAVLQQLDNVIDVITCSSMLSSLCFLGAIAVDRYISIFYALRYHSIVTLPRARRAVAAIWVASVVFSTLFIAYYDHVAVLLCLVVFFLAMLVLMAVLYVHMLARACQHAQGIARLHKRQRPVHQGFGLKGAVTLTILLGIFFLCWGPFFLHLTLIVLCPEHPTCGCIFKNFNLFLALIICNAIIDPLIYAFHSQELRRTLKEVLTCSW

recombinant human melanocortin-4 receptor (hMCR-4) in membrane homogenates of HEK-293 cells (human), sequence (P32245 whole entry): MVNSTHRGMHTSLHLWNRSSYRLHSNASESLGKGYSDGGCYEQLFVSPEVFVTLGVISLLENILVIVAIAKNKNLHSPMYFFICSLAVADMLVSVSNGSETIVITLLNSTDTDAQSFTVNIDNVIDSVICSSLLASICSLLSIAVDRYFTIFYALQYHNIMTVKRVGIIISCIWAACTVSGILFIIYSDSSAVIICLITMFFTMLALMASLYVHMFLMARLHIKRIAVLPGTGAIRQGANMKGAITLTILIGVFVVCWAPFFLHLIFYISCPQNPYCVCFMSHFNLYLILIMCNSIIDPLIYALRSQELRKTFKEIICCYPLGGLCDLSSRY

Row | Ki [1] [µM] | Ki [2] [µM] | Substance
1 | 10 | 0.02 | Ac-[Nle]AH[dF]R[dP][dW]-NH2
2 | 7.12 | 1.29 | Ac-[Nle][dF]RAW-NH2
